Laboratory results reported in patent publication US6703198.

Biological target: full-length murine Notch1 expressed on 32D myeloid progenitor cells (murine) (UniProt Q01705)
Test: cell-based or functional assay

Chain of full-length murine Notch1 expressed on 32D myeloid progenitor cells (murine) (Q01705 19-2531): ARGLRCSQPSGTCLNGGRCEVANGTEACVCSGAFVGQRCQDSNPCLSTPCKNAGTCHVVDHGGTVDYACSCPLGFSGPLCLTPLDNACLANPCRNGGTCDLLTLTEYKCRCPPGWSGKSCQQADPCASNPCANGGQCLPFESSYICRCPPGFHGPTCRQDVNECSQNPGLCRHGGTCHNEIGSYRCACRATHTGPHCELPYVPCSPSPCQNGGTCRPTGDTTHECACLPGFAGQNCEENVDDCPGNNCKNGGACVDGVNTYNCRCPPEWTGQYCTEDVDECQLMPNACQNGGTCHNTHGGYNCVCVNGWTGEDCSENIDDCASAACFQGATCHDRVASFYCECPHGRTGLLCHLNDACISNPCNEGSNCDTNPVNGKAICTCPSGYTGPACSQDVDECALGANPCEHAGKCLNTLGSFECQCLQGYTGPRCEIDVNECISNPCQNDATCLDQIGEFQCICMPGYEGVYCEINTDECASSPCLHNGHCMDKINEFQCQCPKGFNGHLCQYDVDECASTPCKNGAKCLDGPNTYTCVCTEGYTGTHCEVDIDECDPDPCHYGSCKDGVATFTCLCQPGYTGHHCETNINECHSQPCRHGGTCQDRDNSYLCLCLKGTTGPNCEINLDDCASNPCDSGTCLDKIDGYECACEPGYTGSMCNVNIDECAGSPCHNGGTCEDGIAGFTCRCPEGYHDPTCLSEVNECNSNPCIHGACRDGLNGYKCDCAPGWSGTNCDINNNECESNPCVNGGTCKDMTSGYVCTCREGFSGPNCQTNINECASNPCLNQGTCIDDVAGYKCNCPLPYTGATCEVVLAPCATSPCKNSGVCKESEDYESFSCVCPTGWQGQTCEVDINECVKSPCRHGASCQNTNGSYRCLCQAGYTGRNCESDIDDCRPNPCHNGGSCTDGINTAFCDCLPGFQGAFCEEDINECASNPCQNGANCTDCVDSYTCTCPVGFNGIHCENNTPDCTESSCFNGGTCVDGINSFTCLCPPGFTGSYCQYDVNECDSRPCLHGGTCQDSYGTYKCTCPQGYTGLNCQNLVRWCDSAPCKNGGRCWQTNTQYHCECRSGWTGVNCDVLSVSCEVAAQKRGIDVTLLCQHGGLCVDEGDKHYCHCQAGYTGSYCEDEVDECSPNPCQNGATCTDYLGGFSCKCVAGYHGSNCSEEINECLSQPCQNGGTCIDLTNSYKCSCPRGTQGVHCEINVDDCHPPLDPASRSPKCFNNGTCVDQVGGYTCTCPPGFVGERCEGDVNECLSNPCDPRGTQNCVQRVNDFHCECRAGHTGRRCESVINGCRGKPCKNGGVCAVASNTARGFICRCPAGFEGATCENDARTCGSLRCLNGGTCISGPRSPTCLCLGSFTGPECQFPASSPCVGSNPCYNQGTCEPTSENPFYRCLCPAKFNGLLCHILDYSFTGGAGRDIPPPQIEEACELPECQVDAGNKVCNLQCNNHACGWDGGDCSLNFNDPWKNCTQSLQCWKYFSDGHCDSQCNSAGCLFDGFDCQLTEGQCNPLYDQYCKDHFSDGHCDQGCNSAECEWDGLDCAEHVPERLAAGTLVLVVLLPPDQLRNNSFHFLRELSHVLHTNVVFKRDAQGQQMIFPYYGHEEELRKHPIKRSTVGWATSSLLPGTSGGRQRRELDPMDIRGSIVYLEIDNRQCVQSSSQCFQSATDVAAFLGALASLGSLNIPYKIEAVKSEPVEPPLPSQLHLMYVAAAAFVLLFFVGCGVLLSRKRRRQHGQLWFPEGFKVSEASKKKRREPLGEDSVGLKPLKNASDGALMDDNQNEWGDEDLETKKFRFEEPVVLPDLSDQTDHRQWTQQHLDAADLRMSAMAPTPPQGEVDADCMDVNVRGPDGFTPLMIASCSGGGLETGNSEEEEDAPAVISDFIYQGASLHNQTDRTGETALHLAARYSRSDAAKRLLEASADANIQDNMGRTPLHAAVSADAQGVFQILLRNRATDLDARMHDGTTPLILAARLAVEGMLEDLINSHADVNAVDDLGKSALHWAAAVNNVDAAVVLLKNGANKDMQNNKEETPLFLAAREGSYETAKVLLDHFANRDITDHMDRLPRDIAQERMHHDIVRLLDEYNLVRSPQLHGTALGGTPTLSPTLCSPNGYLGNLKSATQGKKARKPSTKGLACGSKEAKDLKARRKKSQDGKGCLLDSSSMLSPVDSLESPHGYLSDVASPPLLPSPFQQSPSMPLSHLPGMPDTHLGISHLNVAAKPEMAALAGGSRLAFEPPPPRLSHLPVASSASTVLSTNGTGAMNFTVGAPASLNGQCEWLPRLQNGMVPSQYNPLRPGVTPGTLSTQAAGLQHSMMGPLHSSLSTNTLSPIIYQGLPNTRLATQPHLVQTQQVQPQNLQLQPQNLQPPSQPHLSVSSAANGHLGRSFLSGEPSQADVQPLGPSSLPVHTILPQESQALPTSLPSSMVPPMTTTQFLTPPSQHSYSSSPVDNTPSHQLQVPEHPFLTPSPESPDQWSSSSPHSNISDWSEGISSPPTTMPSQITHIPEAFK

Replating efficiency (FL Notch1 32D clones after 6 days on HS-27a with G-CSF): 190%
percent of full-length Notch1-expressing 32D cells mature by day 6 on HS-27a in G-CSF: 20%
percent of full-length Notch1-expressing 32D cells remaining undifferentiated by day 6 on HS-27a in G-CSF: 40%
Substance: human JAGGED1 (hJAGGED1) expressed on HS-27a human bone marrow stromal cells (from UniProt P78504 22-1218) (ligand)
